Assay results reported in patent publication US20200231681A1 (CHONG KUN DANG PHARMACEUTICAL, published 2020).

What was measured:
[1] = target: T1, human MSP R/Ron (R&D systems, 1947-MS-050) (human, UniProt Q04912 25-571, limits assumed); experiment: indirect ELISA, hu8C4 at 6.000 nM
Protocol: (§1) Each antigen was diluted in 0.05 M carbonate-bicarbonate (Sigma, C3041) buffer at a concentration of 1 μg/ml, after which the resulting antigen was added into each well of a 96-well plate (Corning, #2592), such that the resulting plate was coated at 4° C. overnight. The plate was washed once with TBS-T, after which TBS-T containing 4%—skim milk was added by 200 μl into each well of the resulting plate in order to inhibit a non-specific binding, such that the resulting plate was reacted at 37° C. for 1 hour. Then, the plate was washed once with TBS-T buffer, after which a primary antibody was sequentially diluted in TBS-T buffer containing 2%—skim milk from a highest concentration of 30 nM to 0.002 nM, such that the resulting antibody was added by 100 μk into each well, thus being reacted at 37° C. for 2 hours. After being washed three times with TBS-T buffer, an anti-human kappa light chains-peroxidase (Sigma, A7164) was diluted at a ratio of 1:5000 as a secondary antibody, after which the resulting antibody was added by 100 μl into each well, thus being reacted at 37° C. for 1 hour. Then, after being washed three times with TBS-T buffer, TMB solution (Sigma, T4444) was added by 100 μl into each well to carry out an color developing reaction, after which 2 N […] solution was added by 50 μl into each well to stop the reaction. An optical density was measured based on a value at a wavelength of 450 nm by using a microplate reader and a reference wavelength of 570 nm was used.

[2] = target: T2, mouse c-Met (SiNo. Biological Inc, 50622-M08H) (mouse, UniProt P16056 25-931); experiment: ELISA, antigen coated at 2 µg/ml, antibody 6.4 pM to 100 nM, anti-human IgG F(ab')2-HRP, TMB, O.D. at 450 nm [panel Mouse cMet]
T2 construct: extracellular domain
Protocol: (§2) Particularly, mouse c-Met (SiNo. Biological Inc, 50622-M08H), cynomolgus monkey c-Met (SiNo. Biological Inc, 90304-CO8H), human c-Met (R&D Systems, 358-MT), mouse EGFR (SiNo. Biological Inc, 51091-M08H), cynomolgus monkey EGFR (SiNo. Biological, 90285-008B) and human EGFR (Abcam, 155639) antigens were all divided into a 96-well plate at a concentration of 2 μg/ml, after which the resulting plate was reacted at 4° C. overnight.
(§3) Color development was made by using TMB (Sigma, T4444) solution, wherein its value was measured at an optical density of 450 nm and its ELISA results are shown in FIG. 9.

[3] = target: T3, cynomolgus monkey c-Met ECD (SiNo. Biological, 90304-CO8H) (cynomolgus monkey, UniProt A0A2K5UM36 25-932); experiment: SPR (BIAcore), antibody captured by anti-human IgG Fc, antigen as analyte, 1:1 Langmuir
T3 construct: not shown: The vendor's tag
Protocol: (§4) The antibodies were diluted in HBS-EP buffer (0.01 M HEPES pH 7.4, 0.15 M NaCl, 3 mM EDTA and 0.005% (v/v) Surfactant P20) at a concentration of 1-2 μg/ml, after which the resulting antibodies were injected into a CM5 chip with an anti-human Ig Fc fixed thereto at a flow rate of 30 μl/min for 10-120 seconds, and then captured in a range of 150-200 RU. Each antigen was used after being diluted at 10, 5, 2.5, 1.25, 0.625, 0.3125 and 0.15625 nM, after which the resulting antigens were sequentially injected from a lower concentration. Then, the resulting antigens were injected at a flow rate of 30 μl/min for 5 minutes to carry out binding, after which a running buffer was injected thereinto for 10-15 minutes to carry out a dissociation. 15 μl of 10 mM Glycine-HCl (pH 1.5) was used to revive the chip.

[4] = target: T4, human c-Met ECD (ACROBiosystems, MET-H5227) (human, UniProt P08581 25-932); experiment: as above
T4 construct: extracellular domain; Bought protein
Protocol: as §4

[5] = target: T1, human MSP R/Ron (R&D systems, …); experiment: indirect ELISA, hu8C4 at 0.048 nM
Protocol: as §1

[6] = target: T5, human IGF-I R (R&D systems, 391-GR-050) (human, UniProt P08069 31-932); experiment: indirect ELISA, hu8C4 at 0.048 nM
Protocol: as §1

[7] = target: T6, human c-Met Fc chimera (R&D systems, 358-MT_CF) (human, UniProt P08581 25-932); experiment: indirect ELISA, hu8C4 at 0.048 nM
T6 construct: extracellular domain; also called human c-Met (R&D Systems, 358-MT)
Protocol: as §1

[8] = target: T7, human PDGF Rβ Fc chimera (R&D systems, 385-PR_CF) (human, UniProt P09619 33-530); experiment: indirect ELISA, hu8C4 at 0.048 nM
Protocol: as §1

[9] = target: T1, human MSP R/Ron (R&D systems, …); experiment: indirect ELISA, hu8C4 at 0.002 nM
Protocol: as §1

[10] = target: T8, human VEGF R2 Fc chimera (R&D systems, 357-KD_CF) (human, UniProt P35968 20-764); experiment: indirect ELISA, hu8C4 at 0.002 nM
T8 construct: also called VEGFR R2
Protocol: as §1

[11] = target: T5, human IGF-I R (R&D systems, 391-GR-050); experiment: indirect ELISA, hu8C4 at 0.002 nM
Protocol: as §1

[12] = target: T6, human c-Met Fc chimera (R&D systems, …); experiment: indirect ELISA, hu8C4 at 0.002 nM
Protocol: as §1

[13] = target: T7, human PDGF Rβ Fc chimera (R&D systems, …); experiment: indirect ELISA, hu8C4 at 0.002 nM
Protocol: as §1

[14] = target: T9, mouse EGFR (SiNo. Biological Inc, 51091-M08H) (mouse, UniProt Q01279 25-647); experiment: ELISA, coated antigen 2 µg/ml
T9 construct: extracellular domain
Protocol: as §2, §3

A450 nm-A570 nm [1]: 0 A450 nm-A570 nm
binding result [2]: no binding (tested: 100 nM)
Kd [3]: 0.462 nM
koff [3]: 0.000345 s⁻¹
kon [3]: 747000 M⁻¹ s⁻¹
Kd [4]: 0.317 nM
koff [4]: 0.000215 s⁻¹
kon [4]: 677000 M⁻¹ s⁻¹
A450 nm-A570 nm [5]: 0 A450 nm-A570 nm
A450 nm-A570 nm [6]: 0 A450 nm-A570 nm
A450 nm-A570 nm [7]: 0.76 A450 nm-A570 nm
A450 nm-A570 nm [8]: -0.01 A450 nm-A570 nm
A450 nm-A570 nm [9]: 0 A450 nm-A570 nm
A450 nm-A570 nm [10]: -0.01 A450 nm-A570 nm
A450 nm-A570 nm [11]: 0 A450 nm-A570 nm
A450 nm-A570 nm [12]: 0.05 A450 nm-A570 nm
A450 nm-A570 nm [13]: -0.01 A450 nm-A570 nm
binding result [14]: no binding
B1: hu8C4 (IgG1 humanized antibody having a hinge region of SEQ ID NO: 38 in hu8C4-1) (antibody, V domains shown)
VH: EVQLVESGGGLVQPGGSLRLSCAASGYTFSDYYINWVRQAPGKGLEWIGEIFPGSGNTHFSARFKGRATLSADKSKNTAYLQMNSLRAEDTAVYYCAGGDYGFLYWGQGTLVTVSS
VL: DIQMTQSPSSLSASVGDRVTITCGASENIYGALNWYQQKPGKAPKLLIYGATNLADGVPSRFSGSGSGRDFTFTISSLQPEDIATYYCQNVLSSPYTFGQGTKVEIK
notes: light chain detected with anti-human kappa; also called anti-c-Met antibody hu8C4; hu8C4 monospecific antibody
